{
  "source": "paper PMC11876735",
  "about": "(Journal of Nuclear Medicine, 2025)",
  "conditions_in_all_cases": "in vivo",
  "key": {"[1]": {"test_system": "midgut neuroendocrine tumors", "design": "species or system patients", "protocol": "The best tumor size change from baseline was assessed in individual lesions with dosimetric estimations. Tumor size was assessed by CT using 2 dimensions (longest [L] and perpendicular [W]) for each tumor per time point. Size change was based on the ratio of tumor area (L × W) at measured times (Tt) to tumor area at baseline (Tbl) and presented as a percentage where percentage tumor size change was ((Tt/Tbl) − 1) × 100%. Positive values indicate size growth, and negative values represent size reduction. Analyses were repeated using 1 dimension (short axis for lymph node lesions and long axis for other lesions). Tumor measurements were performed at 2–7 time points at 12-wk intervals until 72 wk after the first administration. […] However, the timings of dosimetry assessments were not the same for all lesions. Lesion uptake was assumed to be proportional to mass, resulting in a constant absorbed dose at all cycles for an equivalent injected activity. The cumulative absorbed dose was calculated for each target lesion. The correlation between tumor absorbed dose and effect was assessed by plotting the best percentage tumor size change from baseline versus the tumor cumulative absorbed dose."}, "[2]": {"design": "species or system patients", "protocol": "Dosimetry assessments were performed using planar scintigraphy methodology routinely used at the time the study was conducted ([9],[10]). […] The geometric mean between the anterior and posterior images at each time point was calculated ([11]). Source organ radioactivity was determined at each time point, and cumulative activities were calculated ([12]). Absorbed dose values in target organs were calculated using time-integrated activity coefficients ([13]) of source organs using OLINDA/EXM version 1.0 (Hermes Medical Solutions) ([14]). A blood-based model was used to derive the cumulative activity in the red marrow and the corresponding absorbed dose ([15],[16])."}, "[3]": {"design": "species or system patients", "from_the_text": "Safety data were collected as previously described ([5]).", "remark": "listed apart in the source"}, "[4]": {"test_system": "midgut neuroendocrine tumors", "design": "species or system patients", "from_the_text": "For tumor dosimetry, baseline scintigraphy was used to select tumors that were easily delineated on imaging. Tumor doses were derived using the sphere model of OLINDA/EXM version 1.0 ([14]). The ^177Lu dose factor values were interpolated for each lesion on the basis of its mass.", "remark": "listed apart in the source"}},
  "data": [
    {"compound": "C[C@@H](O)[C@H](NC(=O)[C@@H]1CSSC[C@H](NC(=O)[C@@H](Cc2ccccc2)NC(=O)CN2CCN(CC(=O)O)CCN(CC(=O)O)CCN(CC(=O)O)CC2)C(=O)N[C@@H](Cc2ccc(O)cc2)C(=O)N[C@H](Cc2c[nH]c3ccccc23)C(=O)N[C@@H](CCCCN)C(=O)N[C@@H]([C@@H](C)O)C(=O)N1)C(=O)O", "note": "[^177Lu-DOTATATE, [^177Lu]Lu-DOTATATE, metal not drawn]", "values": [
      {"measurement": "Cumulative absorbed dose range of lesions with approximately 50 Gy or greater", "setting": "[1]", "result": "50–789 Gy"},
      {"measurement": "Lesions that received a cumulative absorbed dose of approximately 50 Gy or greater", "setting": "[1]", "result": 73, "unit": "%"},
      {"measurement": "Overall effective half-life of the elimination phase", "setting": "[2]; human", "result": "21 to 161", "unit": "h"},
      {"measurement": "Cumulative red marrow dose", "setting": "[2]", "result": 3.2, "unit": "Gy"},
      {"measurement": "Kidney doses in three substudy patients", "setting": "[2]", "result": "28-33 Gy"},
      {"measurement": "Kidney injected activity profile, peak", "setting": "[2]", "result": "around 8%"},
      {"measurement": "Acute hematologic toxicity grade", "setting": "[3]", "result": "mild or moderate (grade 1 or 2)"},
      {"measurement": "Patients with grade 4 lymphopenia during treatment (acute toxicity)", "setting": "[3]", "result": 20, "unit": "%"},
      {"measurement": "Patients with transient grade 3 leukopenia during treatment", "setting": "[3]", "result": 10, "unit": "%"},
      {"measurement": "Severe renal toxicity", "setting": "[3]", "result": "no severe renal toxicity was observed"},
      {"measurement": "Absorbed dose for four 7.4 GBq (29.6 GBq in total), Median (range)", "setting": "[4]", "result": "134 (7–2,218) Gy"},
      {"measurement": "Absorbed dose per unit activity, Median (range)", "setting": "[4]", "result": "4.5 (0.2–74.9) Gy/GBq"},
      {"measurement": "Lesion activity at 160 h", "setting": "[4]", "result": "less than 0.01 % of injected activity"},
      {"measurement": "Target lesions with cumulative absorbed dose of at least 50 Gy", "setting": "[4]", "result": 73.8, "unit": "%"},
      {"measurement": "Target lesions with cumulative absorbed dose of at least 100 Gy", "setting": "[4]", "result": 52.3, "unit": "%"},
      {"measurement": "Absorbed dose for four 7.4 GBq (29.6 GBq in total), Mean (SD)", "setting": "[4]; SD", "result": "224 (313) Gy"},
      {"measurement": "Absorbed dose per unit activity, Mean (SD)", "setting": "[4]; SD", "result": "7.6 (10.6) Gy/GBq"}
    ]}
  ]
}
